From patent publication US20260242735A1 (UNIVERSIT T BASEL, published 2026)

Legend:
Assay in all cases: alanine scan, flow cytometry, HEK293-T;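 note: antibody binding to each alanine-substituted CD33 mutant expressed transiently in HEK293-T, read as fluorescence minus background, mean of duplicates, relative to wild-type CD33 set as 100%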
[1] = target: human CD33 D79A (human, UniProt P20138 18-364)
[2] = target: human CD33 I67A (human, UniProt P20138 18-364)
[3] = target: human CD33 F90A (human, UniProt P20138 18-364)
Chain of human CD33 F90A (P20138 18-364 F90A limits assumed): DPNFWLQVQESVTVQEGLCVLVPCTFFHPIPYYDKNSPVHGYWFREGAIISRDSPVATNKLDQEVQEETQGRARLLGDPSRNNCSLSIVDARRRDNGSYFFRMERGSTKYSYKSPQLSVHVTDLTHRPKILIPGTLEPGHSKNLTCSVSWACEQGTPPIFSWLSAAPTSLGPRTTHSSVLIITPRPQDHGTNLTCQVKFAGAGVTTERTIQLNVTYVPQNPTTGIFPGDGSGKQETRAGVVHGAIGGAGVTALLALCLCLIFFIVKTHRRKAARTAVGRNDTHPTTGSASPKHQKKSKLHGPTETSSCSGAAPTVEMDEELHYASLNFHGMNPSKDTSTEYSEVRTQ

[4] = target: human CD33 S71A (human, UniProt P20138 18-364)
Chain of human CD33 S71A (P20138 18-364 S71A limits assumed): as the sequence (P20138 18-364 F90A limits assumed) above, with S54A, A73F counted along it

[5] = target: human CD33 S115A (human, UniProt P20138 18-364)
Chain of human CD33 S115A (P20138 18-364 S115A limits assumed): as the sequence (P20138 18-364 F90A limits assumed) above, with A73F, S98A counted along it

[6] = target: human CD33 N76A (human, UniProt P20138 18-364)
Chain of human CD33 N76A (P20138 18-364 N76A limits assumed): as the sequence (P20138 18-364 F90A limits assumed) above, with N59A, A73F counted along it

[7] = target: human CD33 V73A (human, UniProt P20138 18-364)
Chain of human CD33 V73A (P20138 18-364 V73A limits assumed): as the sequence (P20138 18-364 F90A limits assumed) above, with V56A, A73F counted along it

[8] = target: human CD33 P96A (human, UniProt P20138 18-364)
Chain of human CD33 P96A (P20138 18-364 P96A limits assumed): as the sequence (P20138 18-364 F90A limits assumed) above, with A73F, P79A counted along it

[9] = target: human CD33 H57A (human, UniProt P20138 18-364)
Chain of human CD33 H57A (P20138 18-364 H57A limits assumed): as the sequence (P20138 18-364 F90A limits assumed) above, with H40A, A73F counted along it

[10] = target: human CD33 F61A (human, UniProt P20138 18-364)
Chain of human CD33 F61A (P20138 18-364 F61A limits assumed): as the sequence (P20138 18-364 F90A limits assumed) above, with F44A, A73F counted along it

[11] = target: human CD33 I66A (human, UniProt P20138 18-364)
Chain of human CD33 I66A (P20138 18-364 I66A limits assumed): as the sequence (P20138 18-364 F90A limits assumed) above, with I49A, A73F counted along it

[12] = target: human CD33 P48A (human, UniProt P20138 18-364)
Chain of human CD33 P48A (P20138 18-364 P48A limits assumed): as the sequence (P20138 18-364 F90A limits assumed) above, with P31A, A73F counted along it

[13] = target: human CD33 L93A (human, UniProt P20138 18-364)
Chain of human CD33 L93A (P20138 18-364 L93A limits assumed): as the sequence (P20138 18-364 F90A limits assumed) above, with A73F, L76A counted along it

[14] = target: human CD33 R98A (human, UniProt P20138 18-364)
Chain of human CD33 R98A (P20138 18-364 R98A limits assumed): as the sequence (P20138 18-364 F90A limits assumed) above, with A73F, R81A counted along it

[15] = target: human CD33 Y59A (human, UniProt P20138 18-364)
Chain of human CD33 Y59A (P20138 18-364 Y59A limits assumed): as the sequence (P20138 18-364 F90A limits assumed) above, with Y42A, A73F counted along it

[16] = target: human CD33 Y50A (human, UniProt P20138 18-364)
Chain of human CD33 Y50A (P20138 18-364 Y50A limits assumed): as the sequence (P20138 18-364 F90A limits assumed) above, with Y33A, A73F counted along it

[17] = target: human CD33 R111A (human, UniProt P20138 18-364)
Chain of human CD33 R111A (P20138 18-364 R111A limits assumed): as the sequence (P20138 18-364 F90A limits assumed) above, with A73F, R94A counted along it

[18] = target: human CD33 M120A (human, UniProt P20138 18-364)
Chain of human CD33 M120A (P20138 18-364 M120A limits assumed): as the sequence (P20138 18-364 F90A limits assumed) above, with A73F, M103A counted along it

[19] = target: human CD33 R109A (human, UniProt P20138 18-364)
Chain of human CD33 R109A (P20138 18-364 R109A limits assumed): as the sequence (P20138 18-364 F90A limits assumed) above, with A73F, R92A counted along it

[20] = target: T1, human CD33 T192A (human, UniProt P20138 18-364)
T1 construct: alanine scan clone, transfected HEK293-T
T1 sequence (P20138 18-364 T192A limits assumed): as the sequence (P20138 18-364 F90A limits assumed) above, with A73F, T175A counted along it

[21] = target: T2, human CD33 S181A (human, UniProt P20138 18-364)
T2 construct: alanine scan clone, transfected HEK293-T
T2 sequence (P20138 18-364 S181A limits assumed): as the sequence (P20138 18-364 F90A limits assumed) above, with A73F, S164A counted along it

[22] = target: T3, human CD33 S166A (human, UniProt P20138 18-364)
T3 construct: alanine scan clone, transfected HEK293-T
T3 sequence (P20138 18-364 S166A limits assumed): as the sequence (P20138 18-364 F90A limits assumed) above, with A73F, S149A counted along it

[23] = target: T4, human CD33 L141A (human, UniProt P20138 18-364)
T4 construct: alanine scan clone, transfected HEK293-T
T4 sequence (P20138 18-364 L141A limits assumed): as the sequence (P20138 18-364 F90A limits assumed) above, with A73F, L124A counted along it

[24] = target: T5, human CD33 L148A (human, UniProt P20138 18-364)
T5 construct: alanine scan clone, transfected HEK293-T
T5 sequence (P20138 18-364 L148A limits assumed): as the sequence (P20138 18-364 F90A limits assumed) above, with A73F, L131A counted along it

[25] = target: T6, human CD33 K130A (human, UniProt P20138 18-364)
T6 construct: alanine scan clone, transfected HEK293-T
T6 sequence (P20138 18-364 K130A limits assumed): as the sequence (P20138 18-364 F90A limits assumed) above, with A73F, K113A counted along it

[26] = target: T7, human CD33 I149A (human, UniProt P20138 18-364)
T7 construct: alanine scan clone, transfected HEK293-T
T7 sequence (P20138 18-364 I149A limits assumed): as the sequence (P20138 18-364 F90A limits assumed) above, with A73F, I132A counted along it

[27] = target: T8, human CD33 S124A (human, UniProt P20138 18-364)
T8 construct: alanine scan clone, transfected HEK293-T
T8 sequence (P20138 18-364 S124A limits assumed): as the sequence (P20138 18-364 F90A limits assumed) above, with A73F, S107A counted along it

[28] = target: T9, human CD33 E170A (human, UniProt P20138 18-364)
T9 construct: alanine scan clone, transfected HEK293-T
T9 sequence (P20138 18-364 E170A limits assumed): as the sequence (P20138 18-364 F90A limits assumed) above, with A73F, E153A counted along it

[29] = target: T10, human CD33 T142A (human, UniProt P20138 18-364)
T10 construct: alanine scan clone, transfected HEK293-T
T10 sequence (P20138 18-364 T142A limits assumed): as the sequence (P20138 18-364 F90A limits assumed) above, with A73F, T125A counted along it

[30] = target: T11, human CD33 P155A (human, UniProt P20138 18-364)
T11 construct: alanine scan clone, transfected HEK293-T
T11 sequence (P20138 18-364 P155A limits assumed): as the sequence (P20138 18-364 F90A limits assumed) above, with A73F, P138A counted along it

[31] = target: T12, human CD33 W179A (human, UniProt P20138 18-364)
T12 construct: alanine scan clone, transfected HEK293-T
T12 sequence (P20138 18-364 W179A limits assumed): as the sequence (P20138 18-364 F90A limits assumed) above, with A73F, W162A counted along it

[32] = target: T13, human CD33 K126A (human, UniProt P20138 18-364)
T13 construct: alanine scan clone, transfected HEK293-T
T13 sequence (P20138 18-364 K126A limits assumed): as the sequence (P20138 18-364 F90A limits assumed) above, with A73F, K109A counted along it

[33] = target: T14, human CD33 V138A (human, UniProt P20138 18-364)
T14 construct: alanine scan clone, transfected HEK293-T
T14 sequence (P20138 18-364 V138A limits assumed): as the sequence (P20138 18-364 F90A limits assumed) above, with A73F, V121A counted along it

[34] = target: T15, human CD33 Q171A (human, UniProt P20138 18-364)
T15 construct: alanine scan clone, transfected HEK293-T
T15 sequence (P20138 18-364 Q171A limits assumed): as the sequence (P20138 18-364 F90A limits assumed) above, with A73F, Q154A counted along it

[35] = target: T16, human CD33 P174A (human, UniProt P20138 18-364)
T16 construct: alanine scan clone, transfected HEK293-T
T16 sequence (P20138 18-364 P174A limits assumed): as the sequence (P20138 18-364 F90A limits assumed) above, with A73F, P157A counted along it

[36] = target: T17, human CD33 G156A (human, UniProt P20138 18-364)
T17 construct: alanine scan clone, transfected HEK293-T
T17 sequence (P20138 18-364 G156A limits assumed): as the sequence (P20138 18-364 F90A limits assumed) above, with A73F, G139A counted along it

Chain of human CD33 D79A (P20138 18-364 D79A limits assumed): as the sequence (P20138 18-364 F90A limits assumed) above, with D62A, A73F counted along it
Chain of human CD33 I67A (P20138 18-364 I67A limits assumed): as the sequence (P20138 18-364 F90A limits assumed) above, with I50A, A73F counted along it

B1: Refmab #5 (antibody, V domains shown)
VH: QVQLVQSGAEVKKPGASVKVSCKASGYTFTNYDINWVRQAPGQGLEWIGWIYPGDGSTKYNEKFKAKATLTADTSTSTAYMELRSLRSDDTAVYYCASGYEDAMDYWGQGTTVTVSS
VL: DIQMTQSPSSLSASVGDRVTINCKASQDINSYLSWFQQKPGKAPKTLIYRANRLVDGVPSRFSGSGSGQDYTLTISSLQPEDFATYYCLQYDEFPLTFGGGTKVEIK
notes: Full-length format is human IgG1 Fc silent (PG-LALA); also made as Fab; The alanine scan used IgG or Fab
Mean % WT Binding [1]: 91.3 % WT binding | Mean % WT Binding [2]: 157 % WT binding | Mean % WT Binding [3]: 123 % WT binding | Mean % WT Binding [4]: 150 % WT binding | Mean % WT Binding [5]: 74.6 % WT binding | Mean % WT Binding [6]: 124 % WT binding | Mean % WT Binding [7]: 112 % WT binding | Mean % WT Binding [8]: 114 % WT binding | Mean % WT Binding [9]: 121 % WT binding | Mean % WT Binding [10]: 161 % WT binding | Mean % WT Binding [11]: 105 % WT binding | Mean % WT Binding [12]: 92.8 % WT binding | Mean % WT Binding [13]: 134 % WT binding | Mean % WT Binding [14]: 134 % WT binding | Mean % WT Binding [15]: 205 % WT binding | Mean % WT Binding [16]: 55.7 % WT binding | Mean % WT Binding [17]: 118 % WT binding | Mean % WT Binding [18]: 73.2 % WT binding | Mean % WT Binding [19]: 103 % WT binding

B2: Refmab #5 (antibody, V domains shown)
VH: QVQLVQSGAEVKKPGASVKVSCKASGYTFTNYDINWVRQAPGQGLEWIGWIYPGDGSTKYNEKFKAKATLTADTSTSTAYMELRSLRSDDTAVYYCASGYEDAMDYWGQGTTVTVSS
VL: DIQMTQSPSSLSASVGDRVTINCKASQDINSYLSWFQQKPGKAPKTLIYRANRLVDGVPSRFSGSGSGQDYTLTISSLQPEDFATYYCLQYDEFPLTFGGGTKVEIK
notes: The alanine scan used IgG or Fab
Mean % WT Binding [20]: 109 % WT binding | Mean % WT Binding [21]: 128 % WT binding | Mean % WT Binding [22]: 114 % WT binding | Mean % WT Binding [23]: 94.5 % WT binding | Mean % WT Binding [24]: 113 % WT binding | Mean % WT Binding [25]: 271 % WT binding | Mean % WT Binding [26]: 112 % WT binding | Mean % WT Binding [27]: 79.4 % WT binding | Mean % WT Binding [28]: 110 % WT binding | Mean % WT Binding [29]: 101 % WT binding | Mean % WT Binding [30]: 140 % WT binding | Mean % WT Binding [31]: 133 % WT binding | Mean % WT Binding [32]: 134 % WT binding | Mean % WT Binding [33]: 101 % WT binding | Mean % WT Binding [34]: 105 % WT binding | Mean % WT Binding [35]: 118 % WT binding | Mean % WT Binding [36]: 92.3 % WT binding

B3: Refmab #6 (antibody, V domains shown)
VH: QVQLQQPGAEVVKPGASVKMSCKASGYTFTSYYIHWIKQTPGQGLEWVGVIYPGNDDISYNQKFQGKATLTADKSSTTAYMQLSSLTSEDSAVYYCAREVRLRYFDVWGQGTTVTVSS
VL: EIVLTQSPGSLAVSPGERVTMSCKSSQSVFFSSSQKNYLAWYQQIPGQSPRLLIYWASTRESGVPDRFTGSGSGTDFTLTISSVQPEDLAIYYCHQYLSSRTFGQGTKLEIK
notes: as for B1
Mean % WT Binding [1]: 78.2 % WT binding | Mean % WT Binding [2]: 108 % WT binding | Mean % WT Binding [3]: 71.1 % WT binding | Mean % WT Binding [4]: 99.4 % WT binding | Mean % WT Binding [5]: 75.8 % WT binding | Mean % WT Binding [6]: 86.8 % WT binding | Mean % WT Binding [7]: 77.7 % WT binding | Mean % WT Binding [8]: 92.3 % WT binding | Mean % WT Binding [9]: 63 % WT binding | Mean % WT Binding [10]: 111 % WT binding | Mean % WT Binding [11]: 93.7 % WT binding | Mean % WT Binding [12]: 104 % WT binding | Mean % WT Binding [13]: 94.2 % WT binding | Mean % WT Binding [14]: 94.2 % WT binding | Mean % WT Binding [15]: 83.2 % WT binding | Mean % WT Binding [16]: 113 % WT binding | Mean % WT Binding [17]: 102 % WT binding | Mean % WT Binding [18]: 76.3 % WT binding | Mean % WT Binding [19]: 107 % WT binding

B4: Refmab #6 (antibody, V domains shown)
VH: QVQLQQPGAEVVKPGASVKMSCKASGYTFTSYYIHWIKQTPGQGLEWVGVIYPGNDDISYNQKFQGKATLTADKSSTTAYMQLSSLTSEDSAVYYCAREVRLRYFDVWGQGTTVTVSS
VL: EIVLTQSPGSLAVSPGERVTMSCKSSQSVFFSSSQKNYLAWYQQIPGQSPRLLIYWASTRESGVPDRFTGSGSGTDFTLTISSVQPEDLAIYYCHQYLSSRTFGQGTKLEIK
notes: as for B2
Mean % WT Binding [20]: 99 % WT binding | Mean % WT Binding [21]: 102 % WT binding | Mean % WT Binding [22]: 108 % WT binding | Mean % WT Binding [23]: 97.5 % WT binding | Mean % WT Binding [24]: 93.3 % WT binding | Mean % WT Binding [25]: 119 % WT binding | Mean % WT Binding [26]: 100 % WT binding | Mean % WT Binding [27]: 98.2 % WT binding | Mean % WT Binding [28]: 89.5 % WT binding | Mean % WT Binding [29]: 91.6 % WT binding | Mean % WT Binding [30]: 104 % WT binding | Mean % WT Binding [31]: 96.7 % WT binding | Mean % WT Binding [32]: 134 % WT binding | Mean % WT Binding [33]: 65.4 % WT binding | Mean % WT Binding [34]: 99.6 % WT binding | Mean % WT Binding [35]: 103 % WT binding | Mean % WT Binding [36]: 88.1 % WT binding
